{"source": "the Immune Epitope Database (IEDB)", "assay_in_all_cases": "IEDB peptide-MHC binding, purified MHC/competitive/radioactivity; filed as Kd, often an IC50 or EC50 that approximates it; ≥ and ≤ were set here for values at or beyond the usual limits of such assays", "key": {"HLA-A*33:01": {"target": "HLA-A*33:01"}, "HLA-A*31:01": {"target": "HLA-A*31:01"}, "HLA-A*11:01": {"target": "HLA-A*11:01"}, "HLA-A*03:01": {"target": "HLA-A*03:01"}, "HLA-A*68:01": {"target": "HLA-A*68:01"}, "HLA-A*02:03": {"target": "HLA-A*02:03"}, "HLA-A*02:06": {"target": "HLA-A*02:06", "settings": "source organism: Dengue virus 2 16681-PDK53"}, "[1]": {"settings": "source organism: Dengue virus 2 Jamaica/1409/1983"}, "[2]": {"settings": "source organism: Mammarenavirus guanaritoense"}, "[3]": {"settings": "source organism: SARS coronavirus Tor2"}, "[4]": {"settings": "source organism: Vaccinia virus WR"}, "[5]": {"settings": "source organism: Triticum aestivum"}, "[6]": {"settings": "source organism: Lassa virus Josiah"}, "[7]": {"settings": "source organism: Dengue virus 3 Martinique/1243/1999"}, "[8]": {"settings": "source organism: Dengue virus 1 Brazil/97-11/1997"}, "[9]": {"settings": "source organism: Mammarenavirus juninense"}, "[10]": {"settings": "source organism: Dengue virus 3 Sri Lanka/1266/2000"}}, "data": [{"sequence": "ITYKCPLLR", "values": [{"measurement": "Kd", "setting": "HLA-A*33:01; [1]", "result": 200, "unit": "nM"}, {"measurement": "Kd", "setting": "HLA-A*31:01; [1]", "result": 11.6, "unit": "nM"}, {"measurement": "Kd", "setting": "HLA-A*11:01; [1]", "result": 63.9, "unit": "nM"}, {"measurement": "Kd", "setting": "HLA-A*03:01; [1]", "result": 16.1, "unit": "nM"}, {"measurement": "Kd", "setting": "HLA-A*68:01; [1]", "result": 59.4, "unit": "nM"}]}, {"sequence": "RSCSFKVGHH", "values": [{"measurement": "Kd", "setting": "HLA-A*33:01; [2]", "result": "≥ 70000", "unit": "nM"}, {"measurement": "Kd", "setting": "HLA-A*31:01; [2]", "result": 477, "unit": "nM"}, {"measurement": "Kd", "setting": "HLA-A*03:01; [2]", "result": 11400, "unit": "nM"}, {"measurement": "Kd", "setting": "HLA-A*68:01; [2]", "result": "≥ 36600", "unit": "nM"}]}, {"sequence": "LTALNDMGK", "values": [{"measurement": "Kd", "setting": "HLA-A*11:01; [1]", "result": 1450, "unit": "nM"}, {"measurement": "Kd", "setting": "HLA-A*68:01; [1]", "result": 528, "unit": "nM"}]}, {"sequence": "WVFGSTMNNK", "values": [{"measurement": "Kd", "setting": "HLA-A*33:01; [3]", "result": "≥ 70000", "unit": "nM"}, {"measurement": "Kd", "setting": "HLA-A*31:01; [3]", "result": 5950, "unit": "nM"}, {"measurement": "Kd", "setting": "HLA-A*11:01; [3]", "result": 208, "unit": "nM"}, {"measurement": "Kd", "setting": "HLA-A*03:01; [3]", "result": 197, "unit": "nM"}, {"measurement": "Kd", "setting": "HLA-A*68:01; [3]", "result": 3.24, "unit": "nM"}]}, {"sequence": "ESRDRKWLYY", "values": [{"measurement": "Kd", "setting": "HLA-A*33:01; [4]", "result": "≥ 70000", "unit": "nM"}, {"measurement": "Kd", "setting": "HLA-A*31:01; [4]", "result": "≥ 70000", "unit": "nM"}, {"measurement": "Kd", "setting": "HLA-A*11:01; [4]", "result": "≥ 59000", "unit": "nM"}, {"measurement": "Kd", "setting": "HLA-A*03:01; [4]", "result": 11500, "unit": "nM"}, {"measurement": "Kd", "setting": "HLA-A*68:01; [4]", "result": 10800, "unit": "nM"}]}, {"sequence": "QQQQQQQQK", "values": [{"measurement": "Kd", "setting": "HLA-A*33:01; [5]", "result": "≥ 56400", "unit": "nM"}, {"measurement": "Kd", "setting": "HLA-A*31:01; [5]", "result": 5380, "unit": "nM"}, {"measurement": "Kd", "setting": "HLA-A*11:01; [5]", "result": 845, "unit": "nM"}, {"measurement": "Kd", "setting": "HLA-A*03:01; [5]", "result": 2110, "unit": "nM"}, {"measurement": "Kd", "setting": "HLA-A*68:01; [5]", "result": "≥ 31300", "unit": "nM"}]}, {"sequence": "ISSRVDRYSK", "values": [{"measurement": "Kd", "setting": "HLA-A*33:01; [4]", "result": "≥ 70000", "unit": "nM"}, {"measurement": "Kd", "setting": "HLA-A*31:01; [4]", "result": 7200, "unit": "nM"}, {"measurement": "Kd", "setting": "HLA-A*11:01; [4]", "result": 287, "unit": "nM"}, {"measurement": "Kd", "setting": "HLA-A*03:01; [4]", "result": "≥ 27300", "unit": "nM"}, {"measurement": "Kd", "setting": "HLA-A*68:01; [4]", "result": 861, "unit": "nM"}]}, {"sequence": "SINVTIPEQY", "values": [{"measurement": "Kd", "setting": "HLA-A*33:01; [4]", "result": 12800, "unit": "nM"}, {"measurement": "Kd", "setting": "HLA-A*31:01; [4]", "result": 8190, "unit": "nM"}, {"measurement": "Kd", "setting": "HLA-A*11:01; [4]", "result": 783, "unit": "nM"}, {"measurement": "Kd", "setting": "HLA-A*03:01; [4]", "result": 19100, "unit": "nM"}, {"measurement": "Kd", "setting": "HLA-A*68:01; [4]", "result": 5200, "unit": "nM"}]}, {"sequence": "ILKEPVHGV", "values": [{"measurement": "Kd", "setting": "HLA-A*02:03; source organism: Human immunodeficiency virus type 1 BH10", "result": 6.3, "unit": "nM"}]}, {"sequence": "TLMSIVSSLH", "values": [{"measurement": "Kd", "setting": "HLA-A*33:01; source organism: Lymphocytic choriomeningitis virus (strain Armstrong)", "result": "≥ 70000", "unit": "nM"}]}, {"sequence": "MLRLFDFNK", "values": [{"measurement": "Kd", "setting": "HLA-A*33:01; [6]", "result": 527, "unit": "nM"}, {"measurement": "Kd", "setting": "HLA-A*31:01; [6]", "result": 129, "unit": "nM"}, {"measurement": "Kd", "setting": "HLA-A*11:01; [6]", "result": 50, "unit": "nM"}, {"measurement": "Kd", "setting": "HLA-A*03:01; [6]", "result": 84.6, "unit": "nM"}, {"measurement": "Kd", "setting": "HLA-A*68:01; [6]", "result": 571, "unit": "nM"}]}, {"sequence": "VIYDSKFEK", "values": [{"measurement": "Kd", "setting": "HLA-A*11:01; [7]", "result": 41.6, "unit": "nM"}, {"measurement": "Kd", "setting": "HLA-A*03:01; [7]", "result": 64.3, "unit": "nM"}]}, {"sequence": "HIVGKSCPK", "values": [{"measurement": "Kd", "setting": "HLA-A*33:01; [6]", "result": "≥ 24200", "unit": "nM"}, {"measurement": "Kd", "setting": "HLA-A*31:01; [6]", "result": "≥ 45000", "unit": "nM"}, {"measurement": "Kd", "setting": "HLA-A*11:01; [6]", "result": 15000, "unit": "nM"}, {"measurement": "Kd", "setting": "HLA-A*03:01; [6]", "result": 11000, "unit": "nM"}, {"measurement": "Kd", "setting": "HLA-A*68:01; [6]", "result": "≥ 26700", "unit": "nM"}]}, {"sequence": "HLYLQYIRK", "values": [{"measurement": "Kd", "setting": "HLA-A*33:01; [3]", "result": 6900, "unit": "nM"}, {"measurement": "Kd", "setting": "HLA-A*31:01; [3]", "result": 516, "unit": "nM"}, {"measurement": "Kd", "setting": "HLA-A*11:01; [3]", "result": 14.8, "unit": "nM"}, {"measurement": "Kd", "setting": "HLA-A*03:01; [3]", "result": 0.172, "unit": "nM"}, {"measurement": "Kd", "setting": "HLA-A*68:01; [3]", "result": 1610, "unit": "nM"}]}, {"sequence": "LQMENKAWL", "values": [{"measurement": "Kd", "setting": "HLA-A*02:06", "result": 22.8, "unit": "nM"}]}, {"sequence": "LLNRFTMAHR", "values": [{"measurement": "Kd", "setting": "HLA-A*31:01; [8]", "result": "≥ 48500", "unit": "nM"}]}, {"sequence": "GIGTFLHYK", "values": [{"measurement": "Kd", "setting": "HLA-A*33:01; [4]", "result": 3780, "unit": "nM"}, {"measurement": "Kd", "setting": "HLA-A*31:01; [4]", "result": 65.7, "unit": "nM"}, {"measurement": "Kd", "setting": "HLA-A*11:01; [4]", "result": 0.585, "unit": "nM"}, {"measurement": "Kd", "setting": "HLA-A*03:01; [4]", "result": 7.8, "unit": "nM"}, {"measurement": "Kd", "setting": "HLA-A*68:01; [4]", "result": 24, "unit": "nM"}]}, {"sequence": "LLKTALLIV", "values": [{"measurement": "Kd", "setting": "HLA-A*02:03; [7]", "result": 10.6, "unit": "nM"}]}, {"sequence": "EVGAIALDFK", "values": [{"measurement": "Kd", "setting": "HLA-A*68:01; [8]", "result": 15.6, "unit": "nM"}]}, {"sequence": "LMAYANQIHH", "values": [{"measurement": "Kd", "setting": "HLA-A*33:01; [9]", "result": "≥ 53900", "unit": "nM"}, {"measurement": "Kd", "setting": "HLA-A*31:01; [9]", "result": "≥ 24500", "unit": "nM"}, {"measurement": "Kd", "setting": "HLA-A*11:01; [9]", "result": 9790, "unit": "nM"}, {"measurement": "Kd", "setting": "HLA-A*03:01; [9]", "result": 523, "unit": "nM"}, {"measurement": "Kd", "setting": "HLA-A*68:01; [9]", "result": "≥ 24200", "unit": "nM"}]}, {"sequence": "ALDEKWNEFK", "values": [{"measurement": "Kd", "setting": "HLA-A*33:01; [4]", "result": "≥ 70000", "unit": "nM"}, {"measurement": "Kd", "setting": "HLA-A*31:01; [4]", "result": 7280, "unit": "nM"}, {"measurement": "Kd", "setting": "HLA-A*11:01; [4]", "result": 98.2, "unit": "nM"}, {"measurement": "Kd", "setting": "HLA-A*03:01; [4]", "result": 192, "unit": "nM"}, {"measurement": "Kd", "setting": "HLA-A*68:01; [4]", "result": 9850, "unit": "nM"}]}, {"sequence": "IFTLTVAWR", "values": [{"measurement": "Kd", "setting": "HLA-A*33:01; [10]", "result": 5.89, "unit": "nM"}, {"measurement": "Kd", "setting": "HLA-A*31:01; [10]", "result": 163, "unit": "nM"}]}]}
